Source: patent US20060020110A1, “Synthetic peptides that bind to the hepatitis B virus core and E antigens” (priority 2000, published 2006)
Like-named read-outs stand apart in the source and are kept apart here.

Columns and labels:
HBcAg [1] = biological target: T1, HBcAg (Hepatitis B virus genotype D subtype ayw, UniProt P03146); details: for Binding of 10 μg/ml HBcAg to dilutions of support-bound peptide (in words): at low concentrations, TABLE 9; for Binding to HBcAg (in words): support-bound peptides
T1 sequence (P03146 whole entry, the tested form may be a part): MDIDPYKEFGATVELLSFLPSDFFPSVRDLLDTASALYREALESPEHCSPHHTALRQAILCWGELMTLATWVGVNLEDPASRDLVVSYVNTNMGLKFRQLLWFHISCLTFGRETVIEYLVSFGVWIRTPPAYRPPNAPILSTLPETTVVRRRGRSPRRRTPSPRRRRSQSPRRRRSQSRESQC
Source text: (§1) One approach to rational drug design involves sequential amino acid deletion of a known binding partner starting from either the amino or carboxy termini. Amino-terminal deletions of the binding partners of SEQ. ID. Nos. 5 and 17 were made and these peptide fragments were joined to a support and analyzed for the ability to bind HBcAg. […] ID. […] The amino-terminal deletions of the peptide of SEQ. ID. […] The amino-terminal deletion products of the peptide of SEQ. ID. […] ID.
To determine whether a candidate binding partner bound to HBcAg and/or HbeAg, a multimeric support-based binding assay was performed. Accordingly, synthetic peptides corresponding to the VH and VL domains of the sequenced mAbs were passively adsorbed to 96 well microplates in serial dilutions starting at 200 μg/ml. The peptide coated plates were then incubated with HBcAg and HBeAg serially diluted in PBS-GT. The amount of HBcAg and HBeAg bound by the peptides was then detected using a mAb directed to an epitope common to HBcAg and HBeAg (See Sällberg et al., J General Virology 74:1335-1340 (1993), herein expressly incorportaed by reference in its entirety) diluted 1:3000 in PBS-GT. The quantity of bound mAb was determined by addition by peroxidase labeled rabbit anti-mouse IgG (P260, Dako A S, Denmark). The plates were developed by incubation with ortho-phenylene-diamine (Sigma) and the absorbance at 492 nm was evaluated.
The converse of an aspect of this experiment was also performed. That is, various dilutions of support-bound binding partners (SEQ. ID. Nos. 5, 16, 17, 28, and 29) were contacted with 10 μg/ml of HBcAg and binding was evaluated. ID.

HBcAg [2] = biological target: T1, HBcAg; details: for Lowest peptide concentration that prevented binding of mAb 4-2: peptide in the presence of mAb 4-2
Experimental: (§2) Variations of the characterization assays described above include competitive binding assays. […] Initial experiments were conducted by contacting binding partner to HBcAg prior to introducing the antibody. […] ID. […] ID. […] ID. […] ID. […] ID. […] ID.

HBcAg [3] = biological target: T1, HBcAg; details: peptide contacted with HBcAg prior to antibody
Source text: as §1, §2

HBeAg [4] = biological target: T2, HBeAg (Hepatitis B virus genotype D subtype ayw, UniProt P0C573); assay: Binding of HBeAg to support-bound peptides (EIA); details: antigen at concentrations as low as 0.67 μg/ml, TABLE 8
T2 construct: containing nine residues of pre-core and the 150 first residues of HBcAg; made in house
T2 sequence (P0C573 21-179): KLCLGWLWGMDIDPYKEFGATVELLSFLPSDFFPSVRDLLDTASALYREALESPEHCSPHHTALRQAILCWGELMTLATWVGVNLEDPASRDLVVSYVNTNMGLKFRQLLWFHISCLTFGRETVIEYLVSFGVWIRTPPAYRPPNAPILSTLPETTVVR

HBcAg [5] = biological target: T1, HBcAg; details: for gG2 mAb binding to indicated antigen on solid phase: HBcAg: fusion peptide in solution 20 μg/well
Experimental: To evaluate the efficacy of the specificity exchangers described above, several binding assays using a mAb specific for HSV gG2 were conducted. In one assay, the various specificity exchangers were coated onto microtiterplates and were bound with the mAb specific for HSV gG2. […] ID. […] In another assay, HBcAg was coated onto microtiter plates, specificity exchanger was added (20 μg/well), and the binding of the mAb specific for HSV gG2 was determined. […] ID. […] In another binding assay, HBeAg was coated onto microtiter plates, specificity exchanger was added (20 μg/well), and the binding of the mAb specific for HSV gG2 was determined. […] ID. […] The characterization assays used to evaluate binding partners can also be used and/or modified for the analysis of the specificity exchangers.

mAb specific for HSV gG2 = assay: gG2 mAb binding to fusion peptide on solid phase; details: for gG2 mAb binding to indicated antigen on solid phase: fusion peptide: no addition of fusion peptide in solution
Source text: (§3) ID. […] The specificity exchangers provided in SEQ. ID. […] Similarly, the specificity exchangers provided in SEQ. ID.

HBeAg [6] = biological target: T2, HBeAg; assay: Redirection of HSV gG2 mAb to HBeAg on solid phase by fusion peptide in solution; assay type: binding; details: for gG2 mAb binding to indicated antigen on solid phase: HBeAg: fusion peptide in solution 20 μg/well
Source text: as §3

[7] = test system: B cell - mediated antigen presentation of HBcAg to experienced T cells; assay: Inhibition of B cell-mediated antigen presentation of HBcAg to experienced T cells; assay type: cell-based, Balb/c mice
Experimental: A characterization assay that was used to evaluate the ability of a binding partner to modulate a host immune system response to HBV was conducted as follows. Groups of Balb/c mice were immunized subcutaneously with 20 μg HBcAg. Ten days later, draining lymph nodes were harvested and experienced CD4^+ T cells were purified using anti-CD4 coated magnetic beads (Dynal A S, Oslo, Norway) according to the manufacturers instructions. Naïve B cells were obtained from syngeneic mice, which had not been immunized. These B cells were used as antigen presenting cells in the characterization assay.
The ability of the different mAbs and peptides to block B cell uptake and antigen presentation of HBcAg-peptides to HBcAg-specific CD4+ T cells was then tested in vitro. The cell populations were mixed at a B/T cell ratio of 1:5 and added at a final concentration of approximately 2.5×10^5 to 5.0×10^5 cells per well in a 96 well microplate. Approximately, 20 μg of HBcAg was preincubated with the binding partner. The binding partner mixtures were then added to the cells and the plates were incubated for 26 to 96 hours at 37° C. The effect of the binding partners on T cell proliferation was determined by monitoring [^3H] thymidine incorporation.

[8] = antigen at concentrations as low as 0.67 μg/ml, TABLE 8
[9] = peptide 100 μg/ml in the presence of mAb 4-2
[10] = peptide 200 μg/ml in the presence of mAb 4-2
[11] = concentrations as low as 100 μg/ml
[12] = concentrations as low as 50 μg/ml
[13] = specificity exchanger 20 μg/well

VKPGASVKISCKASGYSFTG (Synthetically prepared amino acid sequence) [Peptide 25]
Binding of 10 μg/ml HBcAg to dilutions of support-bound peptide (in words) (HBcAg [1]): appreciable binding at low concentrations
Binding to HBcAg (in words) (HBcAg [1]; TABLE 7): high affinity
Binding to HBcAg (in words) (HBcAg [1]; [8]): appreciable binding
Competition with mAb 4-2 for binding to HBcAg (in words) (HBcAg [2]; [9]): effectively competed with mAb 4-2
Competition with mAb 4-2 for binding to HBcAg (in words) (HBcAg [2]; [10]): significantly inhibited
Lowest peptide concentration that prevented binding of mAb 4-2 (HBcAg [2]): 12.5 µg/mL
Inhibition of mAb 4-2 binding to HBcAg (in words) (HBcAg [3]; [11]): effectively reduced binding of the antibody
Inhibition of mAb 4-2 binding to HBcAg (in words) (HBcAg [3]; peptide 200 μg/ml): able to inhibit binding of mAb 4-2
Binding to HBeAg (in words) (HBeAg [4]): appreciable binding

CKASGYSFTGYNMNWVKQSH (Synthetically prepared amino acid sequence) [Peptide 26]
Binding to HBcAg (in words) (HBcAg [1]; TABLE 7): high affinity
Binding to HBcAg (in words) (HBcAg [1]; [8]): appreciable binding
Competition with mAb 4-2 for binding to HBcAg (in words) (HBcAg [2]; [9]): effectively competed with mAb 4-2
Competition with mAb 4-2 for binding to HBcAg (in words) (HBcAg [2]; [10]): significantly inhibited
Inhibition of mAb 4-2 binding to HBcAg (in words) (HBcAg [3]; [12]): appreciably reduced binding of mAb 4-2
Inhibition of mAb 4-2 binding to HBcAg (in words) (HBcAg [3]; [11]): effectively reduced binding of the antibody
Inhibition of mAb 4-2 binding to HBcAg (in words) (HBcAg [3]; peptide 200 μg/ml): able to inhibit binding of mAb 4-2
Binding to HBeAg (in words) (HBeAg [4]): appreciable binding

VKPGASVKLSCKASGYIFTS (Synthetically prepared amino acid sequence) [Peptide 2]
Binding of 10 μg/ml HBcAg to dilutions of support-bound peptide (in words) (HBcAg [1]): appreciable binding at low concentrations
Binding to HBcAg (in words) (HBcAg [1]; TABLE 7): high affinity
Binding to HBcAg (in words) (HBcAg [1]; [8]): appreciable binding
Competition with mAb 4-2 for binding to HBcAg (in words) (HBcAg [2]; [9]): effectively competed with mAb 4-2
Competition with mAb 4-2 for binding to HBcAg (in words) (HBcAg [2]; [10]): significantly inhibited
Lowest peptide concentration that prevented binding of mAb 4-2 (HBcAg [2]): 6.25 µg/mL
Inhibition of mAb 4-2 binding to HBcAg (in words) (HBcAg [3]; [12]): appreciably reduced binding of mAb 4-2
Inhibition of mAb 4-2 binding to HBcAg (in words) (HBcAg [3]; [11]): effectively reduced binding of the antibody
Inhibition of mAb 4-2 binding to HBcAg (in words) (HBcAg [3]; peptide 200 μg/ml): able to inhibit binding of mAb 4-2
Binding to HBeAg (in words) (HBeAg [4]): appreciable binding

KLSCKASGYIFTSEHRGGPEE [SEQ. ID. No. 70]
gG2 mAb binding to indicated antigen on solid phase: HBcAg (HBcAg [5]): 0.020
gG2 mAb binding to indicated antigen on solid phase: fusion peptide (mAb specific for HSV gG2): 0.040
gG2 mAb binding to indicated antigen on solid phase: HBeAg (HBeAg [6]): 0.022

KLSCKASGYIFTSHRGGPEEF [SEQ. ID. No. 71]
gG2 mAb binding to indicated antigen on solid phase: HBcAg (HBcAg [5]): 0.550
Binding to immobilized HBcAg allowing binding of HSV gG2 mAb (in words) (HBcAg [5]; [13]): appreciably bound the immobilized HBcAg
gG2 mAb binding to indicated antigen on solid phase: fusion peptide (mAb specific for HSV gG2): 1.622
Binding of mAb specific for HSV gG2 to coated specificity exchanger (in words) (mAb specific for HSV gG2; specificity exchanger coated onto microtiterplates): appreciably bound the mAb
gG2 mAb binding to indicated antigen on solid phase: HBeAg (HBeAg [6]): 0.638
Binding to immobilized HBeAg allowing binding of HSV gG2 mAb (in words) (HBeAg [6]; [13]): appreciably bound the immobilized HBeAg

QQKPGQPPKLLIKYASNLES (Synthetically prepared amino acid sequence) [Peptide 16]
gG2 mAb binding to indicated antigen on solid phase: HBcAg (HBcAg [5]): 0.038
Inhibition of B cell mediated antigen presentation of HBcAg to specific CD4+ T cells (in words) [7]: no inhibition
cpm ([3H] thymidine incorporation, T cell proliferation) ([7]; T + B cells, 20 μg HBcAg preincubated with inhibitor, positive control 573, background 110): 572 cpm
% inhibition of APC ([7]; T + B cells, 20 μg HBcAg, calculated from cpm versus positive control and background proliferation): 0%
gG2 mAb binding to indicated antigen on solid phase: HBeAg (HBeAg [6]): 0.022

ISCRASQSVSTSSYSYMHWY (Synthetically prepared amino acid sequence) [Peptide 14]
Binding of 10 μg/ml HBcAg to dilutions of support-bound peptide (in words) (HBcAg [1]): appreciable binding at low concentrations
Binding to HBcAg (in words) (HBcAg [1]; TABLE 7): high affinity
Binding to HBcAg (in words) (HBcAg [1]; [8]): appreciable binding
Inhibition of mAb 4-2 binding to HBcAg (in words) (HBcAg [3]; peptide 200 μg/ml): able to inhibit binding of mAb 4-2
Binding to HBeAg (in words) (HBeAg [4]): appreciable binding

LAVSLGQRATISCRASQSVS (Synthetically prepared amino acid sequence) [Peptide 13]
Binding of 10 μg/ml HBcAg to dilutions of support-bound peptide (in words) (HBcAg [1]): appreciable binding at low concentrations
Binding to HBcAg (in words) (HBcAg [1]; TABLE 7): high affinity
Binding to HBcAg (in words) (HBcAg [1]; [8]): appreciable binding
Competition with mAb 4-2 for binding to HBcAg (in words) (HBcAg [2]; [9]): effectively competed with mAb 4-2
Competition with mAb 4-2 for binding to HBcAg (in words) (HBcAg [2]; [10]): significantly inhibited
Lowest peptide concentration that prevented binding of mAb 4-2 (HBcAg [2]): 6.25 µg/mL
Inhibition of mAb 4-2 binding to HBcAg (in words) (HBcAg [3]; peptide 200 μg/ml): able to inhibit binding of mAb 4-2
Binding to HBeAg (in words) (HBeAg [4]): appreciable binding

KLSCKASGYIFTSRGGPEEFE [SEQ. ID. No. 72]
gG2 mAb binding to indicated antigen on solid phase: HBcAg (HBcAg [5]): 0.016
gG2 mAb binding to indicated antigen on solid phase: fusion peptide (mAb specific for HSV gG2): 0.062
gG2 mAb binding to indicated antigen on solid phase: HBeAg (HBeAg [6]): 0.040

VKLSCKASGYIFTSEHRGGPE [SEQ. ID. No. 73]
gG2 mAb binding to indicated antigen on solid phase: HBcAg (HBcAg [5]): 0.038
gG2 mAb binding to indicated antigen on solid phase: fusion peptide (mAb specific for HSV gG2): 0.060
gG2 mAb binding to indicated antigen on solid phase: HBeAg (HBeAg [6]): 0.029
